# Measured values: patent publication US20170081672
# Legend:
# [1] = test system: ALS2_T1 TALE-nuclease left subunit; experiment: cell_activity; conditions: yeast beta-galactosidase reporter, 37 C, as pair with right subunit; SD or SE 0.02; 0.86 (0.02) at 30 C; NHEJ in N. benthamiana protoplasts 70.68% (DNA, no UTR)
# [2] = test system: ALS2_T1 TALE-nuclease right subunit; experiment: cell_activity; conditions: yeast beta-galactosidase reporter, 37 C, as pair with left subunit; SD or SE 0.02; 0.86 (0.02) at 30 C; NHEJ in N. benthamiana protoplasts 70.68% (DNA, no …)
Sequence,activity (relative to I-SceI (max 1.0)) [1],activity (relative to I-SceI (max 1.0)) [2]
TAGCTTGTTCCACATTT (double strand) [ALS2_T1 left target half-site],0.97,
TGTCATGCTGGGTCAG (double strand) [ALS2_T1 right target half-site],,0.97
